Results from publication PMC2761027.
Positions count from the first letter of the chain named. In names and notes the source's numbering stands.

B1: UvrD1 (Mycolicibacterium smegmatis MC2 155) (protein)
chain: MTSPSATPFAAETDQLLDGLNPQQRQAVLHEGSPLLIVAGAGSGKTAVLTRRIAYLLAEREVGVGQVLAITFTNKAAAEMRERVVQLVGPRAKAMWVSTFHSTCVRILRNQASLLPGLNSNFSIYDSDDSRRLLMMIGKDLGLDTKRYSPRLLANGISNLKNELIGPEQAAAEASEASDEMATVIAQVYGEYQRRLRAANALDFDDLIGETVAVLQAFPQIAQYYRRRFRHILVDEYQDTNHAQYVLVRELVGHHLEDHDGVPPSELCVVGDADQSIYAFRGATIRNIEDFERDFPDATTILLEQNYRSTQTILNAANAVIARNTGRREKRLWTDAGQGELIVGYVADNEHDEARFVADEIDALTDRHGYNYNDIAVFYRTNNSSRALEEVFIRAGIPYKVVGGVRFYERREIRDIVAYLRVLDNPGDSVSMRRILNTPRRGIGDRAEACVAVYAENTGVSFNEALQAAAEGRVPMLNTRSEKCIASFVQMLDDLRGKLDEELGDLVEAVLERTGYRRELEASSDPQDLARLDNLNELVSVAHEFSIDLANAQALAEESDEPVDEDIPDTGVLAQFLERVSLVADADDIPEEGSGVVTMMTLHTAKGLEFPAVFVTGWEDGMFPHMRALGDPNELSEERRLAYVGITRARQRLYLSRAKVRSSWGQPMLNPESRFLREIPQELIDWRRIEAPTPAYAAPGRMSSSGGGGIGFGSPRPSPNRPGGGRNKPLMVLQPGDRVTHDKYGLGRVEEVAGTGESAMSLIDFGSAGRVKLMHNHAPLQKL
B2: UvrD1 (Mycolicibacterium smegmatis MC2 155; Q24A) (protein)
chain: B1 chain with Q24A

How the values were obtained:
purified protein = substrate: Nc1ncnc2c1ncn2[C@@H]1O[C@H](COP(=O)(O)OP(=O)(O)OP(=O)(O)O)[C@@H](O)[C@H]1O; assay: purified protein; format: biochemical, Mycolicibacterium smegmatis; details: salmon sperm DNA, 5 mM MgCl2, pH 8.0, 37 °C, labelled compound
[1] = substrate: O=c1ccn([C@@H]2O[C@H](COP(=O)(O)OP(=O)(O)OP(=O)(O)O)[C@@H](O)[C@H]2O)c(=O)[nH]1; assay: labelled UDP formation from labelled UTP, TLC, Michaelis-Menten fit; format: biochemical, Mycolicibacterium smegmatis; details: salmon sperm DNA, 5 mM MgCl2, pH 8.0, 37 °C, labelled compound

| Protein | Km (purified protein) [µM] | kcat (purified protein) [s⁻¹] | Km [1] [µM] | kcat [1] [s⁻¹] |
| --- | --- | --- | --- | --- |
| B1 | 260 ± 40 | 265 ± 22 | – | – |
| B2 | 690 ± 50 | 95 ± 3 | 1210 ± 130 | 86 ± 5 |
